For the assay, the target named is gC1qR-ΔΔ, gC1qR deletion mutant that removed the flexible, negatively charged loops (UniProt Q07021). In words: SPR; gC1qR-WT or gC1qR-ΔΔ immobilised; two-fold dilution series of analyte injected; reference-corrected sensorgrams fit to kinetic models; apparent KD.
gC1qR-ΔΔ, gC1qR deletion mutant that removed the flexible, negatively charged loops, sequence (Q07021 74-282, stated change not applied): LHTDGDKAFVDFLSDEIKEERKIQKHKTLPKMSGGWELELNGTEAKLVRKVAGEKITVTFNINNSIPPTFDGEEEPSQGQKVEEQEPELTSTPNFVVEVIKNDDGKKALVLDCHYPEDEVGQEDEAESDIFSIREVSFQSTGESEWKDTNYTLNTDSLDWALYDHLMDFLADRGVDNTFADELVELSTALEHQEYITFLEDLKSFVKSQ

Consider “SARS-CoV-2 Membrane-Envelope fusion protein, recombinant”, for which the Kd turned out to be 360 nM.

Values taken from article PMC8602850.
